A word on the pKd: it is −log10 of the Kd, conventionally taken in molar units.

This assay concerns the target Aedes aegypti membrane-bound alkaline phosphatase (Aa-mALP), 54 kDa His(6)-tagged (Aedes aegypti). The assay is described as follows: ELISA; sandwich ELISA; Aa-mALP (2.5 µg) coated on 96-well plates in 50 mM carbonate buffer pH 9.0; ligands at 100, 200, 300 and 400 nM, 37 °C, 2 h; detected with rabbit anti-Cry4Ba antibodies and HRP anti-rabbit IgG; apparent Kd; relative binding with Wt-R203Q set at 100%. (ELISA stands for enzyme-linked immunosorbent assay.)

pKd: −log10 of the molar value.

Take “65 kDa Cry4Ba-R203Q full-length (trypsin-activated) toxin (natural protein)”: the pKd is 7.10. With “21 kDa isolated Cry4Ba-DIII fragment (domain or fragment)”, the pKd was 6.96.

Values taken from publication PMC8402544.
